Results reported in US20200002406A1 (Janssen / Centocor, published 2020).

Legend:
[1] = target: T1, neuraminidase (NA) of influenza A virus H5N1 A/Hong Kong/156/97 (Influenza A virus A/Hong Kong/156/97 …, UniProt Q9W7Y7 1-450); assay: flow cytometry on 293-F cells transfected with NA
T1 construct: also called A/Hong Kong/156/97 (H5N1); NA of influenza virus A N1 subtype

[2] = target: T2, neuraminidase (NA) of influenza B virus B/Malaysia/2506/2004 (Victoria lineage) (Influenza B virus B/Malaysia/2506/2004); assay: cell-based or functional assay
[3] = target: neuraminidase (NA) of influenza A virus H1N1 strain A/New Caledonia/20/1999 (Influenza A virus A/New …); assay: cell-based or functional assay
[4] = target: neuraminidase (NA) of influenza A virus H3N2 strain A/Perth/16/2009 (Influenza A virus A/Perth/16/2009 (H3N2)); assay: cell-based or functional assay
[5] = target: T3, neuraminidase (NA) of influenza B virus B/Florida/04/2006 (Yamagata lineage) (Influenza B virus B/Florida/04/2006); assay: cell-based or functional assay
[6] = target: T2, neuraminidase (NA) of influenza B virus …; assay: cell-based or functional assay; remark: listed apart in the source
[7] = target: T3, neuraminidase (NA) of influenza B virus …; assay: cell-based or functional assay; remark: listed apart in the source
[8] = target: human FcγRIIIa receptor (FcγRIIIa V158) (human, UniProt P08637 17-254); assay: cell-based or functional assay
human FcγRIIIa receptor (FcγRIIIa V158), sequence (P08637 17-254 F176V limits assumed): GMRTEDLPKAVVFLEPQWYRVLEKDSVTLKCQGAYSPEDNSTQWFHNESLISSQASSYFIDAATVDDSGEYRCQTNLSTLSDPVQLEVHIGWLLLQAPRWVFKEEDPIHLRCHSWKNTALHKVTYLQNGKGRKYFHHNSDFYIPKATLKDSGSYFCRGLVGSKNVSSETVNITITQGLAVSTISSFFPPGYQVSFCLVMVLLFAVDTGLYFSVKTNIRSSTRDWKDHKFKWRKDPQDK

T1 sequence (Q9W7Y7 whole entry): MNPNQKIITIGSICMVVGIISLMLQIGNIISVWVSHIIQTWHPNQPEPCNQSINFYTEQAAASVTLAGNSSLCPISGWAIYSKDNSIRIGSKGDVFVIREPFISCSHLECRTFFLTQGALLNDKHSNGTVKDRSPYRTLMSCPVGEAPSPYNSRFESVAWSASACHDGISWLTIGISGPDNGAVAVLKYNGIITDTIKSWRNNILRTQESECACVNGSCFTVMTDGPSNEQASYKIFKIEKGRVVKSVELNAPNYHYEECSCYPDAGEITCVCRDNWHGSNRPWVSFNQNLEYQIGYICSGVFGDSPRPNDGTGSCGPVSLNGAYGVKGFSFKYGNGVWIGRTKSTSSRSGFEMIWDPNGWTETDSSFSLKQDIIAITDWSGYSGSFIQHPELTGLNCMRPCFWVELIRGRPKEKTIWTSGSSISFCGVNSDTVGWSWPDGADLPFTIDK

| Binder | MFI [1] [mfi] | Neuraminidase inhibition activity, EC50 (NA-XTD assay, whole virus) [2] [µg/mL] | Neuraminidase inhibition activity, EC50 (NA-XTD assay, whole virus) [3] [µg/mL] | Neuraminidase inhibition activity, EC50 (NA-XTD assay, whole virus) [4] [µg/mL] | Neuraminidase inhibition activity, EC50 (NA-XTD assay, whole virus) [5] [µg/mL] | Virus neutralization assay (VNA) on MDCK-SIAT1 cells, IC50 [6] [µg/mL] | Virus neutralization assay (VNA) on MDCK-SIAT1 cells, IC50 [7] [µg/mL] | ADCC Reporter Bioassay EC50; A549 target cells infected with B/Lee/1940 [8] [µg/mL] |
| --- | --- | --- | --- | --- | --- | --- | --- | --- |
| CR14012 (antibody, V domains shown, also called sc14-012; anti-NA IgG) VH: QVQLQESGGGVVQPGRSLRLSCAASGFSFSTYGMHWVRQAPGKGLEWVAVISYDGSNKYYADSVKGRFTISRDNAKNTLYLQMNSLRAEDTAVYYCGRDSGYTTNWYPGGYWGQGTLVTVSS VL: not shown | < 250 | – | – | – | – | – | – | – |
| CR14011 (antibody, V domains shown, also called sc14-011; anti-NA IgG) VH: EVQLVETGGGVVQPGRSLRLSCSVSGFSFTTYAMHWVRQAPGKGLEWVAIISDDATKKYYADSVKGRFTISRDNSRNTLILQMNSLRAEDTGVYYCAKDGDPGYDSRYYYYYGMDVWGQGTTVTVSS VL: SYVLTQPPSVSVAPGKTARITCGGNNIGSKSVHWYQQKPGQAPVLVIYYDSDRPSGIPERFSGSNSGNTATLTISRVEAGDEADYYCQVWDSSSDHPVFGGGTKLTVL | < 250 | 0.013 | > 50 | > 50 | 0.004 | 1.19 | 2.21 | – |
| CR14017 (antibody, V domains shown, also called sc14-017; anti-NA IgG) VH: EVQLVETGGGVVQPGRSLRLSCAASGFTFNTHAMHWVRQAPGKGLEWLAVISYDGNIKYYADSVKGRFTISRDSSKNTLYLLMNSLRAEDTAIYYCARDRGDYNYLPSDYWGQGTLVTVSS VL: not shown | < 250 | – | – | – | – | – | – | 0.08 |
